Laboratory results: paper PMC8725002, “Crystal structure of a putative short-chain dehydrogenase/reductase from Paraburkholderia xenovorans” (Acta Crystallographica. Section F, Structural Biology …, 2022)

What was measured:
[1] = target: the molecule itself; assay: SEC; Superdex 75, 25 mM HEPES pH 7.0, 500 mM NaCl, 5% glycerol, 2 mM DTT, 0.025% azide; second step of the purification; single large peak at ~76 kDa; self-association
[2] = target: the molecule itself; assay: crystal structure; apo PxSDR, space group P2(1), 1.45 Å; sitting drop, 0.2 M magnesium chloride, 0.1 M bis-Tris pH 5.5, 25% PEG 3350, 287 K; self-association: tetramer

B1: putative short-chain dehydrogenase/reductase from Paraburkholderia xenovorans (His-PxSDR) (enzyme)
chain: MSSAGRLQGKVALVTGAGCIGPGWGNGRAIAVRFAEEGAHVIAVDRDLASMDATLELVRAAGGSVTPCLCDVTDSASVERLVADSVARCGRVDILVNNVGAPSPGGPVALDEAQWAMQLELNLTTAFLMCKYVLPVMEQQGGGAIVNIASTSGIRWTGAAQVGYAAAKAGMIQMGRVVAVEYAAKNVRVNSVVPGLLHTPMVDTKIAHNQAGGDVELLLRKRQARIPMPFMGDGRDTANAALFLASDEARFVTGTEIVVDGGMSARCD
notes: putative short-chain dehydrogenase/reductase (PxSDR), Paraburkholderia xenovorans strain LB400, UniProt Q13GE3, full length, amplified from genomic DNA; copies therefore left empty; also called P. xenovorans SDR; putative short-chain reductase; source: E. coli BL21(DE3)R3 Rosetta, purified (IMAC on Ni-NTA HisTrap FF, SEC on Superdex 75)
In the case of B1, the “stoichiometry N” value [1] is reported as 2 and the “stoichiometry N” value [2] is reported as 4.
